Article PMC11890623, “Pseudomonas aeruginosa acyl-CoA dehydrogenases and structure-guided inversion of their substrate specificity” (Nature Communications, 2025)

Key:
Assay in all cases: Michaelis-Menten kinetics of purified enzyme (KM)
Assay type in all cases: biochemical, Pseudomonas aeruginosa
Conditions in all cases: FAD
[1] = substrate: CCCCCCCC(=O)SCCNC(=O)CCNC(=O)[C@H](O)C(C)(C)COP(=O)(O)OP(=O)(O)OC[C@H]1O[C@@H](n2cnc3c(N)ncnc32)[C@H](O)[C@@H]1OP(=O)(O)O
[2] = substrate: CCCCCC(=O)SCCNC(=O)CCNC(=O)[C@H](O)C(C)(C)COP(=O)(O)OP(=O)(O)OC[C@H]1O[C@@H](n2cnc3c(N)ncnc32)[C@H](O)[C@@H]1OP(=O)(O)O
[3] = substrate: CCCC(=O)SCCNC(=O)CCNC(=O)[C@H](O)C(C)(C)COP(=O)(O)OP(=O)(O)OC[C@H]1O[C@@H](n2cnc3c(N)ncnc32)[C@H](O)[C@@H]1OP(=O)(O)O

B1: FadE2 (Pseudomonas aeruginosa PAO1) (protein)
chain: MADYKAPLRDMRFVLNEVFEVSRLWAQLPALAEVVDAETAAAILEEAGKVTAGTIAPLNRPGDEEGCQWNAGAVSTPAGFPEAYRTYAEGGWVGVGGDPAYGGMGMPKVISAQVEELVNSANLSFGLYPMLTAGACLALNAHASDELKDKYLPNMYAGIWAGSMCLTEPHAGTDLGIIRTRAEPQADGSYKISGTKIFITGGEHDLTENIIHLVLAKLPDAPAGPKGISLFLVPKVLVNADGSLGEKNSLGCGSIEHKMGIKASATCVMNFDGATGWLVGEVNKGLAAMFTMMNYERLGVGIQGLATGERSYQSAIEYARERIQSRAPTGPVAKDKAADPIIVHPDVRRMLLTMKALNEGGRAFSSYVAMQLDTAKYSEDAVTRKRAEELVALLTPVAKAFLTDMGLETTIHGQQIFGGHGFIREWGQEQLVRDCRITQIYEGTNGIQALDLVGRKVIGSGGAFSRHFTDEIKAFVASADEALGEFSKPLAAAVENLEELTAWLLDRAKGNPNEIGAASVEYLHVFGYTAYAYMWALMARTALAKQGEDDFYASKLGTARFYFARLLPRIHSLSASVRAGSESLYLLDAEQF
notes: full-length ORF, His6 tag removed by TEV
- Km [1]: 21.59 ± 1.23 µM
- Km [2]: 14.6 ± 1.43 µM
- Km [3]: 10.35 ± 1.06 µM
